According to the supplement of paper PMC9170038:

System: MS2 coat protein
Test: apparent KD of MS2 coat protein; designed switch direction (-1 OFF switch, 1 ON switch): -1; higher = weaker reporter binding
Method in brief: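 The reported apparent KD is a per-design median over clusters, from curve fits of normalised cluster fluorescence. Protein titrations used SNAP-549-labelled MS2 coat protein, doubled from 0.7 or 1.5 nM to 3 µM, in Tris-HCl pH 7.5 buffer with KCl, MgCl2, BSA, DTT, tRNA and Tween-20, with no input, 200 uM small-molecule ligand, or an oligonucleotide input. The RNA switches were transcribed on Illumina chips by stalled E. coli RNA polymerase.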

[1] = input ligand: microRNA oligo, concentration not stated
[2] = Eterna round: R95, input ligand: FMN 200 uM
[3] = Eterna round: R95, input ligand: microRNA oligo, concentration not stated
[4] = Eterna round: R95, input ligand: none

Sequence	apparent KD of MS2 coat protein (input ligand: FMN 200 uM) [µM]	apparent KD of MS2 coat protein [1] [µM]	apparent KD of MS2 coat protein (input ligand: none) [µM]	apparent KD of MS2 coat protein [2] [µM]	apparent KD of MS2 coat protein [3] [µM]	apparent KD of MS2 coat protein [4] [µM]
ACAUGAGGAUCACCCAUGUUAUGUUGGGUACUAAAUUAUUCGUAGGAUAUCGUAGCUAGUUUGUGCGAGAAGGACGCAUUUUUU [JR_ExcNG3_Sub059] (Eterna round: R96, puzzle: Exclusion NG 3)	0.205	0.229	0.273			
CAGUACUGAGGAUAUACAUGAGGAUCACCCAUGUGUUCCAGGUAGGAAACUAGCAAAAGUAGAAGGCAGUACUG [salish99_ex3_r3_078] (puzzle: Exclusion 3)				0.0997	0.0202	0.0204
CUUCGACAUGAGGAUCACCCAUGUCAGGAUAUUGUUUAUCUGGUGUUGUCCAGAUAUGCAAGAAGGGAUGUGUG [LRO-Excl1-04] (puzzle: Exclusion 1)					0.0338	
AUAAUGUCAGGAUAUCAGUCGUACAGCUGCGGCUGUACGACUGAGAAGGGACAUGAGGAUCACCCAUGUGGUCA [E4/6-A3] (Eterna round: R97, puzzle: Exclusion 4)	0.0202		0.236			
AGGUCAUUAGGAUAUGUCGAAUAUGACAUGAGGAUCACCCAUGUGGUAGGCAUGUCGUAGACAGAAGGAGUGUAAA [Laqureis] (Eterna round: R97, puzzle: Exclusion 5)	0.219		0.0759			
GGCACACAUGAGGAUCACCCAUGUGAGGAUAUGUGGCGAUCGUCGAAAGACGAUAGCCAUAGAAGGCACAUGCC [Eli x1 4.08] (Eterna round: R97, puzzle: Exclusion 1)	0.0321		0.0181			
UAUUAGCAAGUGAGAUCCCACAUGAGGAUCACCCAUGUGCUCGUCUUAUAAGGUACUGUGACGAAAGUCACGGUACC [Sensor 3, v1 - 91 v1] (Eterna round: R97, puzzle: Sensor, turn-off variant 1)	0.0562		0.0476			
AAAGACAGAGGAUAUGCACGCCGACCCGGGCGGGAAGUCGGACAUGAGGAUCACCCAUGUAGAAGGCUGAGAAA [Exclss2-VII] (puzzle: Exclusion 2)					0.0105	
ACAACAAGCUUUUUGAACGUAGAACAUGCAGCUCUAGAAACAUGAGGAUCACCCAUGUAAGCCAGUUAGAUAGGUGA [JR_SV3TOV2_Sub067] (puzzle: Sensor v3, turn-off variant 2)				0.0761	0.0691	0.0895
GUUUUACAUGAGGAUCACCCAUGUGAGGAUAUAUUAUUAAUAGUGAUAAUUAUUGGUGGUAGAAGGCGCGUGAU [JR_Exc1_Sub012] (Eterna round: R97, puzzle: Exclusion 1)	0.0509		0.0531			
AAAGGCUCAGGAUAUGCCCAGGAAGACAUGAGGAUCACCCAUGUACUACGGGUGUCAUACGCAGAAGGGAGAUAGA [EX5 C.28] (Eterna round: R97, puzzle: Exclusion 5)	0.0251		0.0287			
CACGUACAGCAAGGAUAUCCAAAUGUUGAGCAUGGCCUAUCCAUACAUGAGGAUCACCCAUGUUCGGAGAAGGUGCAUGUAUCU [Enteinte] (Eterna round: R96, puzzle: Exclusion NG 2)	0.0112	0.00996	0.0128			
GCAGAAAGUGUAGGAUAUAGAUAUUAGCGGAAACGCAAUACAUGAGGAUCACCCAUGUUUCCUCACUAGAAGGGCAAAAGCUGC [EXNG2 V2 d] (Eterna round: R96, puzzle: Exclusion NG 2)	0.0187	0.0125	0.0172			
GAUUAUGCGAGCUUUAGGGACAUGAGGAUCACCCAUGUUCGUCUUAUUGGUCUGAGUACACUAACAUACCUAAAUCU [JMF 15] (puzzle: Sensor v3, turn-off variant 1)				0.0183	0.0264	0.0203
ACAUGAGGAUCACCCAUGUCAACGAAAAGGCUCAUGUAGAGUGAGGAUAUGUGAGACGAACGAGAACAGAAGGCACAAGACAGG [Deportation 3 - Jieux - Exclusion NG 3] (Eterna round: R96, puzzle: Exclusion NG 3)	0.0318	0.0166	0.0384			
ACAAGCUUUUUCAUAUCUUACAUGAGGAUCACCCAUGUUUUUGCAAUUAUGUUUGGGCUCUUUUGAGCUCGUCUUAU [JR_STOV1_Sub048] (Eterna round: R97, puzzle: Sensor, turn-off variant 1)	0.0135		0.0144			
UAAUUAAUAAGAUCAAUUAAUUAACAUGAGGAUCACCCAUGUGAGGAUAUCAGCUCGUGUAGAGCUGAGAAGGCACAAUAAUUA [ExNG3/17-C3] (Eterna round: R96, puzzle: Exclusion NG 3)	0.203	0.0388	0.0519			

Sequence	apparent KD of MS2 coat protein (input ligand: FMN 200 uM) [µM]	apparent KD of MS2 coat protein [1] [µM]	apparent KD of MS2 coat protein (input ligand: none) [µM]	apparent KD of MS2 coat protein [2] [µM]	apparent KD of MS2 coat protein [3] [µM]	apparent KD of MS2 coat protein [4] [µM]
CCACGACAUGAGGAUCACCCAUGUGAGGAUAUGGCCUGUAAGGCGUGAGCUGAAUCAAUCAGAAGGCGCGUGGG [salish99_ex1_r4_057] (Eterna round: R97, puzzle: Exclusion 1)	0.0924		0.0506			
UUAUUUAGGUAGGAUAUCGAUACCAAUUACUAUCGAGAAGGGUCUACAUGAGGAUCACCCAUGUUAGCAUGUUU [LRO-Excl6-12-Rocketman] (Eterna round: R97, puzzle: Exclusion 6)	0.0264		0.0249			
GUAGAGUAAGGAUAUCGUGAAUAGGAUAGAAUGGUUAGAAACGAGAAGGUACAUGAGGAUCACCCAUGUAAUGU [Excluse me!!!! 17 - Jieux - Exclusion 4] (puzzle: Exclusion 4)					0.0208	
AAGAAACAUGAGGAUCACCCAUGUGAGGAUAUGGAAAAGAAAAGAAAAGAAAGAAGAAUCAGAAGGCACAAAGG [salish99-ex1_r3_020] (puzzle: Exclusion 1)				0.0408	0.0337	0.0376
GUGAUCUAUCAUGUAAUAAACAUGAGGAUCACCCAUGUAGACAAGUUUUUUGCUCGUCUUAUAAUAAGAUAGAUCAC [Antenna 15 - Jieux - Sensor, turn-off variant 1] (Eterna round: R97, puzzle: Sensor, turn-off variant 1)	0.0163		0.0159			
AAAAGUCCGGAGGAUAUCCACAAGCUCGGGAAAGGAGAAGGCCGGACAUGAGGAUCACCCAUGUGUCUUCUUGC [Rebila] (puzzle: Exclusion 6)				0.358	0.063	0.0945
AGUUAUGUAGGAUAUGCACGUGACAACUUGAGGAUCACCCAAGUGAUUGCAGGCUGGGCGGCAGAAGGGCAGUUGU [Diedbi] (Eterna round: R97, puzzle: Exclusion 5)	0.153		0.104			
AAGAAACAUGAGGAUCACCCAUGUGAGGAUAUGAUGAGUAUUAUGUAUGUAGUAUGAAUCAGAAGGCACAAAGG [Mat - Mod Mix D40] (puzzle: Exclusion 1)				0.224	0.095	0.158
UUGAAAGGUGUAGGAUAUGUAUGAGGAUCACCCAUUAAUAAAUUUUAACCACGAGGAUCACCCGUGUAGAAGGACACCUUUCAA [pwkr exNG2 2xF5 1xFMN.18] (Eterna round: R96, puzzle: Exclusion NG 2)	0.0369	0.018	0.0318			
AAAAUACAAGCAAGAUCCUACAUGAGGAUCACCCAUGUGCUCGUCUUAUAAAGUACUAUCACGAAAGUGAUAGUACA [Mat - Sensor v3 - turn-off var 1 - Eli Mod - D59] (puzzle: Sensor v3, turn-off variant 1)				0.256	0.0431	0.415
GUGUACAGAGGAUAUAUAUGGGCAUGGAAACAUGCAACUUCACAUGAGGAUCACCCAUGUAGAAGGCUGUACAC [Ex2: 712] (Eterna round: R96, puzzle: Exclusion 2)	0.332	0.023	0.0289			
UCACGGGAUUGAGGAUAUAUAUUAAUUUUUACAAUAGAAGGCAAAUUGUUAGAUUAUUCACUAUACAUGAGGAUCACCCAUGUU [JR_ExcBG1_Sub078] (Eterna round: R96, puzzle: Exclusion NG 1)		0.0176				
AACCGGCGGACCGAAGCUUUUUGCUUGUUUUAUACUACAACAUGAGGAUCACCCAUGUGGUGGUGGUCCGUUGUAGA [Bitein] (puzzle: Sensor v3, turn-off variant 2)				0.0479	0.0161	0.0529
CUUCGUUGCAAGGAUAUGUGAACGAAGAGGGAUACAGAAGGUGCUACAUGAGGAUCACCCAUGUGGGUUGAUUU [Eternabot (L1) Solution 48] (Eterna round: R97, puzzle: Exclusion 6)	0.363		0.226			
UGGGUUCUCCAUAGAAGUAACAUGAGGAUCACCCAUGUAGGGCAAGUUUUUUGUUCGUCAUAGGCUGUGGAUUUGGA [JR_SV3TOV1_Sub020] (puzzle: Sensor v3, turn-off variant 1)				0.0908	0.17	0.133
ACAUGAGGAUCACCCAUGUUCGGCUGGUCCGUCUCGGCUGUCGAGGAUAUAGUUCGGUGUCCGCGCUAGAAGGCGGGAGCUGGC [Aenatbe mod 65] (Eterna round: R96, puzzle: Exclusion NG 3)	0.0341	0.0294	0.0426			
